Experimental data reported in the nanobody polyreactivity screen of Harvey et al. (2022).

Assay: yeast display, Sf9 membrane polyspecificity reagent, FACS + sequencing; frameworks hold sequencing errors
Summary of the method: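 Sorting gates, low and high (top ~1%), were placed on anti-HA fluorescence to track expression and on streptavidin fluorescence to track reagent binding. A clone's polyreactivity label is taken from the gate it came out of. The reagent was 10% biotinylated, detergent-solubilized Sf9 membrane, applied for 1 hour at 4 °C to galactose-induced yeast display cells.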
In the case of “QVQLVESGGGLVQAGGSLRLSCAASGFTFRNYAMGWYRQAPGKEREFVAAISFSGGRTYYADSVKGRFTISRDNAKNTVYLQMNSLKPEDTAVYYCAKKSYSKYDYWGQGTQVTVSS”, the “polyreactivity (PSR sort gate)” value is reported as “low polyreactivity”.
For “QDQLVESGGGIVQAGGSLRLSCAASGSTFTWYAMGWYLQDPGKEREFVAAITRSGDSTYYADSVKGRFTISRDNAKNTVYLEMNSLKPEDTAVYYCAASNDYLRGWFDYWGQGTQVTVSS”, the “polyreactivity (PSR sort gate)” value was “low polyreactivity”.
In the case of “QVQLVESGGGLVQAGGILRLSCAASGSIFYAYDKGWYRQAPGKERELVAGISSSDSTYYADSVKGRFTISRDNAKNTVYLQLNSLKPEDTAVYYCAADPVFAAAYIHLYGIYDTWGQGTQVTVSS”, the “polyreactivity (PSR sort gate)” value is reported as “low polyreactivity”.
For “QVQLVESGGGLVQAGGSLRLSCAASGRTSASNAMGWYREAPGKERELVATIDGIDGNTYYADSVKGRFTISRDNAKNTVYLQMNSLKPEDTAVYYCNVESWRLQAIYKYSYWGQGTQVTVSS”, the “polyreactivity (PSR sort gate)” value was “low polyreactivity”.
For “QVQLVESGGGLVQAGGSLRFSCADSGRILSLYAMGWSRQAPGKERELVASINWSDGSTYYADSVKGRFTISRDKAKNTVYLQMNSLKPEDTAVYYCNVDVRSYVAGYDYWGQGTLVTVSS”, the “polyreactivity (PSR sort gate)” value was “low polyreactivity”.
With “QVQLVESGGGLVQAGGSLRLSCAASGSTFSYNMGWYRQAPGKERELVAAISGSGGSTYADSVKGRFTISRDNAKNTVYLQMNSLKPEDTAVYYCATVRYWVHEYGYWGQGTQVTVSS” the “polyreactivity (PSR sort gate)” value was “high polyreactivity”.
For “QVQLVESGGGLVQAGGSLRLSCAASGSTSRYNVMGWSRQPPGKERELVAAISSRGVSTYYADSVKGRFTISRDNAKNTVYLQMNSLKPEDTAVYYCAALYGGPSHYGYWGQGTQVTVSS”, the “polyreactivity (PSR sort gate)” value was “high polyreactivity”.
With “QVQLVESGGGLVQAGGSLRLSCAASGSIFKPYAMAWYRQAPGKERELVAAINRGGTSTYYADSVKGRFTISRDNAKNTVYLQMNSLKPEDTAVYYCAKTYTEYSVTRSGARMDYWGQGAQVTVSS” the “polyreactivity (PSR sort gate)” value was “low polyreactivity”.
With “QVQLVESGGGLVQAGGSLRLSCAASGRIFGAYAMGWYRQAPGKERELVAASSSGGSTYYADSVKGRFTISRDNAKNTVSLQMKSLNPEDTAVYYCAASSGNGYGYWGQGTQVSVSS” the “polyreactivity (PSR sort gate)” value was “high polyreactivity”.
In the case of “QVQLVESGGGLVQAGGSLRLSCAASGRIFSRYAMGGYRQAPGTERELVAAINNGGSTYYADSVKGRFTISRDNAKNTVYLQMNSLKPEDTAVYYCAKLWWSNFKPVEYWGQGTQVTVSS”, the “polyreactivity (PSR sort gate)” value is reported as “low polyreactivity”.
With “QVQLVESGGGLVQAGGSLRLSCAASGSTLGRYAMGWYIQAPGKERELVAAISRGGGSTYYADSVKGRFTISRDNAKNTVYLQMNSLKPEDTAVYYCAARQYIGSPPHRRRFDYWGQGTQVTVSS” the “polyreactivity (PSR sort gate)” value was “high polyreactivity”.
For “QGQLGEYGGGLVQAGGSLRLSCAAYGRTVYYYAMGWYRQEPGKDREFVAGITATGSSTYYADSVKGRFTISRDNAKNTVYLQMNSLKPEDTAVYFCAADRYTTYSGQWSYPYDYWGQGTQVTVSS”, the “polyreactivity (PSR sort gate)” value was “low polyreactivity”.
With “QVQLVESGGGLVQAGGSLRLSCAASGFTLYSYAMGWYRQAPGKERELVARISRSGGRTYYADSVKGRFTISRDNAKNTVYLQMNSLKPEDTAVYYGNARSLYYSYDYWGQGTQVTVSS” the “polyreactivity (PSR sort gate)” value was “high polyreactivity”.
For “QVQLVESGGGLVQAGGSLRLSCAASGIIFGWYAMGWYRQAPGKERELVAAINWSGTSTYYADSVKGRFTISRDNAKNTVYLQMNSLKPEDPAVYYCAAYFQKLPTTGYEYWGQGTQVTVSS”, the “polyreactivity (PSR sort gate)” value was “low polyreactivity”.
For “QVQLVESGGGLVQAGGSLRLSCDASGSIFGWYAMGWYRQAPGKERELVAAITFSSVSTYYADSVKGRFTISRDNAKNTVYLLMNSLKPEDTAVYYCAAVVYYTFDYWGQGTQVTVSS”, the “polyreactivity (PSR sort gate)” value was “low polyreactivity”.
In the case of “QVQLVESGGGLVQAGGSLRLSCAASGSIFYPYARGWYRQAPGKERELVASITINDGSTYYADSVKGRFTISRDNAKNTVYLQMNSLKPADTAVYYSAVDWLSVTSTIKFEMDYWGQGTQVTVSS”, the “polyreactivity (PSR sort gate)” value is reported as “low polyreactivity”.
With “QVQLVESGGGLVQAGGSLRLSCAASGITFYYYAMGWYRQAPGKERELVAAISRSGGSTYYADSVKGRFTISRDNAKNTVYLQMNSLKPEDTAVYYCANRKGGTLYNYWGQGTQVTVSS” the “polyreactivity (PSR sort gate)” value was “high polyreactivity”.
With “QVQLVESGGRVLQAGGSLRLSCAASGRIFSYNDMGWYRQAPGKERELVATITSGDSTISADSVKGRFTISRDNAKNTVYLQMNSLKPEDTAVYYCATDIYGLPVDYWGQGTQVTVSS” the “polyreactivity (PSR sort gate)” value was “low polyreactivity”.
With “QVQLVESGGGLVQAGGSLRLSCAAYGSIIRRYAMGWYRQAPGKERELVATISSGSRTYYADSVKGRFTISRDNAKNTVYLQMNSLKPEDTAVYYCNARSRRVGLTLYNYWGQGTQVTVSS” the “polyreactivity (PSR sort gate)” value was “high polyreactivity”.
For “QVQLVESGGGLFQAGGSLRLSCAASGFTIFLNAMGWYRQAPGKERELVAAITVSGSSTYYADSVKGRFTISRDNAKNTVYLQMNSLKPEDTAVYYCNAEIYSPYYTYDYWGQGTQVTVSS”, the “polyreactivity (PSR sort gate)” value was “low polyreactivity”.
In the case of “QVQLVESGGGLVQAGGSLRLICAASGSTFTRYAMGWYRQAPGKERELVAAINSSGGRTYYADSVKGRFTISRDNAKNTVYLQMNSLKPEDTAVYYFAATRGRYREDEDYWGQGTQVTVSS”, the “polyreactivity (PSR sort gate)” value is reported as “high polyreactivity”.
For “QVHLVDSGGGLVQAGGSLRLTCAASGSSFWAYVMGWYRQAPGKERELVAAISKSGVRTHYADSVKGRFTISRDNAKTTFYLQMNSLKPEDTAVYYFAAVGFGNLDDYWGQGTQVTVSS”, the “polyreactivity (PSR sort gate)” value was “high polyreactivity”.
In the case of “QVQLVESGGGLVQAGGSLRLSCAASGFIFSRNVMGWYRQAPGKDRELVAAISRSGGSTYYADSVKGRFTISRDNAKNTVYLQMNSLKPEDTAVYYCAAVRRVYSQNDYWGQGTQVTVSS”, the “polyreactivity (PSR sort gate)” value is reported as “high polyreactivity”.
With “QVQLVESGGGLVQAGGSLRLSCAASGRIFYNVMGWYRQAPGKERELVAAISSSGGRTYYADSVKGRFTISRDNAKNTVYLQMNSLKPEDTAVYYCAARAWYYGYWGQGTQVTVSS” the “polyreactivity (PSR sort gate)” value was “high polyreactivity”.
For “QVQLVESGGGLVQAGGSLRLSCAASGSTFRSYAMGWYRQAPWKERELVAAISSSGGSTYYADSVKGRFTISRDNANNTVYLQMNSLKPEDTAVYICAADFLYYEYDYWGQGTQVTVSS”, the “polyreactivity (PSR sort gate)” value was “low polyreactivity”.
With “QVQLVERGGGLVQAGGSHRLSCAASGRIFPGYAKGWYRQAPGKELELVAAISRIGGDTYYADSVKGRFTISRDNAKNTVYLQMNSLKPEDTPVYYCAARYGRHRVSWYATWRYGYWGQGTQVTVSS” the “polyreactivity (PSR sort gate)” value was “low polyreactivity”.
With “QVQLVESGGGLVQAGGSLRLSCAASGFTFQKYAMGWYRQAPGKERELVAAISSSGGRTYYADSVKGRFTISRDNAKNTVYLQMNSLKPEDTAVYYCNAVPGYVYYYQYWGQGTQVTVSS” the “polyreactivity (PSR sort gate)” value was “high polyreactivity”.
In the case of “QVQLVESVGGLVQAGGSLRLSCAASGSTFYFNAMGWYRQAPGKERELVAAIDWSGGSTYYADSVKGRFTISRDNAKNTVYLQMNSLKPEDTAVYYCAAPYHYYGNTVGYADYDYWGQGTQVTVSS”, the “polyreactivity (PSR sort gate)” value is reported as “low polyreactivity”.
In the case of “QVQLVESGGGLVQAGGSLRLSCAASGSTFQTYAMGWYRQAPGKERELVAAITSGGSTNYADSVKGRFTISRDNAKNTVYLQMNSLKPEETAVYYCAVRQIYQTSDHRLQYDYWGQGTQVSVSS”, the “polyreactivity (PSR sort gate)” value is reported as “low polyreactivity”.
For “QVQLVESAGGLVQAGGSLSLSCAASGGTFSTNAMGWYRQAPGQERELVAAISLSGGRTYADSVKGRFTISLDNAKNTVYLQMNSLKPEDTAVYYCNADSAGITRARSELDYWGQGTQVTVSS”, the “polyreactivity (PSR sort gate)” value was “low polyreactivity”.
In the case of “QVQLVESGGGLVQAGGSLRLSCAASGSIFSRYAMGWYRQAPGKERELVAAITSSGGRTYYADSVKGRFTISRDNAKNTVYLQMNSLKPEDTAVYYCAADVRTPSEGYDYWGQGTQGTVSS”, the “polyreactivity (PSR sort gate)” value is reported as “high polyreactivity”.
In the case of “QVQLVESGGGLVQAGGRLRLSCAASGFIFDSNTMGWYRQAPGKERELVAGITRRGGSTYYADSVKGRFTISRDNAKNSVYLQMNSLNPEDTAVYYCATAGTYTGGEGYWGQGTQVTVSS”, the “polyreactivity (PSR sort gate)” value is reported as “high polyreactivity”.
For “QVQLVESGGGLVQAGGSLRLSCAASGLTFGGNAMGWYRQAPGKERELVAGISWSGGNTNYADSVKGRFTISRDNAKNTVYLQMNSLKPEDNAVYYCNKATNLSGGYDSWGQGTQVTVSS”, the “polyreactivity (PSR sort gate)” value was “low polyreactivity”.
For “QVQLVESGGGLVQAGGSLRLSCSASGFIFYLYTMGWYRQAPGKERELVAAITKSGTRTYYADSVKGRFTISRDNAKNTVYLQMNSLKPEDTAVYYCAAEWGSSYRWGMDYWGQGTQVTVSS”, the “polyreactivity (PSR sort gate)” value was “high polyreactivity”.
In the case of “QVQLVESGGGLVQAGGSLRLSCAASGSIFEVNAMGWYRQAPGKERELVATITYSGGSTYYSDSVKGRFTISRDNAKNTVYLQMHSLKPEDTAVFYCAAPIGDVYVGNGYDSWGQGTQVTVSS”, the “polyreactivity (PSR sort gate)” value is reported as “low polyreactivity”.
For “QVQLVESGGGLVQAGGSLRLSCAAYGSTFGDYAMGWYRQAPGKERELVAAITIGGITTYADSVKGRFTISRDNAKNTVYLQMNSLKPEDTAVYYCADAERGDWDDYWGQGTQVTVSS”, the “polyreactivity (PSR sort gate)” value was “low polyreactivity”.
In the case of “QVQLVESGGGLVQAGVSLRLSSAASGIIFAYYTMGWYRQAPGKERELVAAISWSGGSTYYADSVKGRFTISRDNAKNTVYLQMNSLKPEDTAVYYCAVVSRRTRLPYYYWGQGTQVTVSS”, the “polyreactivity (PSR sort gate)” value is reported as “high polyreactivity”.
For “QVQLVESGGGLVQAGGSLRLSCAASGRTFSYYAMGWYRQAPGKERSLVAAISWSGGRTYYADSVKGRFTISRDNAKNTVYLQMNSLKPEDTAVYYCAARYVYPYWYGDYYWGQGTQVTVSS”, the “polyreactivity (PSR sort gate)” value was “low polyreactivity”.
With “QVQLVESGGGLVQAGGSLRLSCAASGRIIAYYAMGWYRQAPGKERELVAAISRRGGSTYYADSVKGRFTISRDNAKNTVYLQMNSLKPEDTAVYYCDTLTLESFSALYYWGQGTQVTVSS” the “polyreactivity (PSR sort gate)” value was “low polyreactivity”.
With “QVQLVESGGGLVQAGGSLRLSCAASGRIFRYYAMGWYRQAPGKEREFVAAISSNTGTGTYYADSVKGRFTISRDNAKNTVYLQMNSLKPEDTAVYYCNAKYKYRGYYWGQGTQVTVSS” the “polyreactivity (PSR sort gate)” value was “high polyreactivity”.
For “QVQLVESGGGLVQAGGSLSLSCAASGSIFRTYALGWYRQAPGKERELVASITKSGARTYYADSVKGRFTISRDNAKNTVYLQMNSLKPEDTAVYYCAAGYYSVTSRRYRMYYWGQGTQVTVSS”, the “polyreactivity (PSR sort gate)” value was “high polyreactivity”.
In the case of “QVQLVESGGGLVQAGGSLRLSCAASGFIFGLYAMGWYRQAPGKEREFVAAISWSGGSTYYADSVKGRFTISRDNAKNTVYLQMNSLKPEDTAVYYCAREYHGDSRRYDYWGQGTQVTVSS”, the “polyreactivity (PSR sort gate)” value is reported as “high polyreactivity”.
With “QVQLVESGGGLVQAGGSLRLSCAASGSIFPSYAMGWYRQAPGKERELVAVINSGGSTYYADSVKGRFTISRDNAKNTVYFQMNSLKPEDTAVYYCAAYRRRYPRFDYWGQGTQVTVSS” the “polyreactivity (PSR sort gate)” value was “high polyreactivity”.
